We go through one substance from patent US7785835.

For orientation: IC50 means the midpoint of a concentration-inhibition curve. A high value points to lower potency.

Experiment [1] has as its target vitronectin (UniProt P04004). In words: cell-based or functional assay.
For experiment [2], the target named is vitronectin (UniProt P04004). In words: competition binding assay, displacement of [^125I]-IGF-II from VN-coated wells (300 ng/well).
vitronectin, sequence (P04004 20-478 limits assumed): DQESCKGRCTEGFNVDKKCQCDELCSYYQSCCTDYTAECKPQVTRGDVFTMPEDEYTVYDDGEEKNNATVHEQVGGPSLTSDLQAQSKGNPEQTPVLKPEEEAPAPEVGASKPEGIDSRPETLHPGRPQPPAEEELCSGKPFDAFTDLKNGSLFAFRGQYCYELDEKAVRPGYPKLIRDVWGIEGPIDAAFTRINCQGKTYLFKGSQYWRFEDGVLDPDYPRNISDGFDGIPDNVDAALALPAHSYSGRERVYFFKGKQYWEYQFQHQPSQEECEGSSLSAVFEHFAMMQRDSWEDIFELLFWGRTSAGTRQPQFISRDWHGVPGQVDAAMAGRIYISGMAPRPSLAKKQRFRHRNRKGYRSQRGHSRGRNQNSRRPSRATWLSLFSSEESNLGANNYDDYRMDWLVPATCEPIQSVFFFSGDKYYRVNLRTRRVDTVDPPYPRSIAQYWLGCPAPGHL

insulin-like growth factor-II, sequence (P01344 25-91 limits assumed): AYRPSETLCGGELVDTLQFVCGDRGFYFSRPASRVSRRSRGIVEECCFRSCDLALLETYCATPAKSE

In the experiment with vitronectin [1], “insulin-like growth factor-II (from UniProt P01344 25-91) (ligand)” gave an incorporation of [^3H]-leucine into protein in human keratinocytes, % above control; 3 ng IGF-II pre-bound to VN coated wells of 19%; an incorporation of [^3H]-leucine into protein in human keratinocytes, % above control; 10 ng IGF-II pre-bound to VN coated wells of 29%; an incorporation of [^3H]-leucine into protein in human keratinocytes, % above control; 30 ng IGF-II pre-bound to VN coated wells of 39%; an incorporation of [^3H]-leucine into protein in human keratinocytes, % above control; 100 ng IGF-II pre-bound to VN coated wells of 51%. Besides, in the experiment with vitronectin [1], the incorporation of [^3H]-leucine into protein in human keratinocytes, % above control; 300 ng IGF-II pre-bound to VN coated wells turned out to be 70%; the incorporation of [^3H]-leucine into protein in human keratinocytes, % above control; 1000 ng IGF-II pre-bound to VN coated wells was 101%; the synergistic effect in protein synthesis above the calculated additive effect of VN alone and IGF-II alone was 5 to 46%. For the same substance, the IC50 with vitronectin [2] turned out to be 9.6 nM.
